Measurements: the supplement of paper PMC7125110
± gives the standard error. This sample holds only a part of the variants without activity.

B1: glmS ribozyme (parent)
chain: AUAAAAGCGCCAGAACUACAGAAAUGUAGUUGACGAGGAGGAGGUUUAUCGAAUUUUCGGCGGAUGCCUCCAAA

Key:
Conditions in all cases: with glucosamine-6-phosphate
[1] = variants of: B1; assay: self-cleavage kobs at 40 uM GlcN6P; higher = faster cleavage; RNA array
Outline: (§1)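 Using a hybridised Cy3 probe at 37 °C, barcoded ribozyme variants transcribed in situ by E. coli RNA polymerase on sequenced MiSeq chips were monitored across tiles imaged over ~14 h. The flow contained glucosamine-6-phosphate from 40 μM to 10 mM in HEPES/KCl/Mg(OAc)2 buffer. Signals were normalised to baseline and to non-cleaving reference variants before per-tile medians were fit to one- or two-exponential decays to yield kobs. Weighted Michaelis–Menten fits across concentrations gave kcat and KM.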

[2] = variants of: B1; assay: self-cleavage kobs at 10000 uM GlcN6P; higher = faster cleavage; RNA array
Outline: as §1

[3] = variants of: B1; assay: self-cleavage kobs at 160 uM GlcN6P; higher = faster cleavage; RNA array
Outline: as §1

[4] = variants of: B1; assay: self-cleavage kobs at 640 uM GlcN6P; higher = faster cleavage; RNA array
Outline: as §1

[5] = variants of: B1; assay: self-cleavage kobs at 2500 uM GlcN6P; higher = faster cleavage; RNA array
Outline: as §1

AUAAAAGCGCCAGAACUACAGAAAUGUAAUUGACAAGGAGGAGGUUUAUCGAAUUUUCGGCGGAUGCGUCCAAA [G29A G35A C68G]
self-cleavage kobs at 40 uM GlcN6P [1]: 0.000947 ± 0.00027 s⁻¹ | self-cleavage kobs at 10000 uM GlcN6P [2]: 0.000106 ± 3.5e-05 s⁻¹

AUAAAAGCGCCAGAACUACAAAAAUGUAGUUGACGAGGAGGAGGUUUAUCGAAUUUUCGGCGGAUGCCUCCAAA [G21A]
self-cleavage kobs at 40 uM GlcN6P [1]: 0.00134 ± 0.00021 s⁻¹ | self-cleavage kobs at 160 uM GlcN6P [3]: 0.00268 ± 0.00063 s⁻¹ | self-cleavage kobs at 640 uM GlcN6P [4]: 0.00836 ± 0.0012 s⁻¹ | self-cleavage kobs at 2500 uM GlcN6P [5]: 0.00839 ± 0.0024 s⁻¹ | self-cleavage kobs at 10000 uM GlcN6P [2]: 0.0758 ± 0.037 s⁻¹

AUAAAAGCGCCAGAACUACAGAAAUGUAAUUGACGAGGUGGAGGUUUAUCGAAUUUUCGGCGGAUGCCACCAAA [G29A A39U U69A]
self-cleavage kobs at 40 uM GlcN6P [1]: < 1e-05 s⁻¹

AUAAAAGCGCCAGAACUACAGAAAUGUAAUUGACGAGGAGGAGGUUUACCGAAUUUUCGGCGGAUGCCACCAAA [G29A U49C U69A]
self-cleavage kobs at 40 uM GlcN6P [1]: < 1e-05 s⁻¹ | self-cleavage kobs at 10000 uM GlcN6P [2]: < 1e-05 s⁻¹

AUAAAAGCGCCAGAACUAUAGAAAUGUAGUUGACGAGGAGGAGGUUUAUCGAAUUUUCGGCGGAUGCCUCCAAA [C19U]
self-cleavage kobs at 40 uM GlcN6P [1]: 0.00125 ± 0.00046 s⁻¹ | self-cleavage kobs at 160 uM GlcN6P [3]: 0.00445 ± 0.0011 s⁻¹ | self-cleavage kobs at 640 uM GlcN6P [4]: 0.00527 ± 0.0011 s⁻¹ | self-cleavage kobs at 2500 uM GlcN6P [5]: 0.0229 ± 0.0083 s⁻¹

AUAAAAGCGCCAGAACUACAGAAAUGUAAUUGAAGAGGAGGAGGUUUAUCGAAUUUUCGGCGGAUGCCUCCAAA [G29A C34A]
self-cleavage kobs at 40 uM GlcN6P [1]: < 1e-05 s⁻¹ | self-cleavage kobs at 160 uM GlcN6P [3]: < 1e-05 s⁻¹ | self-cleavage kobs at 640 uM GlcN6P [4]: < 1e-05 s⁻¹ | self-cleavage kobs at 2500 uM GlcN6P [5]: < 1e-05 s⁻¹ | self-cleavage kobs at 10000 uM GlcN6P [2]: < 1e-05 s⁻¹

AUAAAAGCGCCAGAACUACAGAAAUGUACUUGACGAGGAGGAGGUUUUUCGAAUUUUCGGCGGAUGCCUCCAAA [G29C A48U]
self-cleavage kobs at 40 uM GlcN6P [1]: < 1e-05 s⁻¹ | self-cleavage kobs at 160 uM GlcN6P [3]: < 1e-05 s⁻¹

AUAAAAGCGCCAGAACUAAAGAAAUGUAGUUGACGAGGAGGAGGUUUAUCGAUUUUUCGGCGGAUGCCUCCAAA [C19A A53U]
self-cleavage kobs at 40 uM GlcN6P [1]: 0.000466 ± 8.9e-05 s⁻¹ | self-cleavage kobs at 640 uM GlcN6P [4]: 0.00276 ± 0.0012 s⁻¹ | self-cleavage kobs at 10000 uM GlcN6P [2]: 0.0123 ± 0.0028 s⁻¹

AUAAAAGCGCCAGAACUACAGAAAUGUAAUUGACGAGGAGGAGGUUUUUCGAAAUUUCGGCGGAUGCCUCCAAA [G29A A48U U54A]
self-cleavage kobs at 40 uM GlcN6P [1]: < 1e-05 s⁻¹ | self-cleavage kobs at 10000 uM GlcN6P [2]: 3.57e-05 ± 1.5e-05 s⁻¹

AUAAAAGCGCCAGAACUACAGAAAUGUAAUUGAUGAGGAGGAGGUUGGUCGAAUUUUCGGCGGAUGGCUCCAAA [G29A C34U U47G A48G C67G]
self-cleavage kobs at 40 uM GlcN6P [1]: 0.000265 ± 0.0001 s⁻¹ | self-cleavage kobs at 10000 uM GlcN6P [2]: 7.2e-05 ± 3.2e-05 s⁻¹

AUAAAAGCGCCAGAACUAAAGAAAUGUAGUUGGCGGGGAAGGGGUUUAUCGAAUUUUCGGCUAAUGCCUCAAAA [C19A A33G A36G G40A A42G G62U G63A C71A]
self-cleavage kobs at 40 uM GlcN6P [1]: < 1e-05 s⁻¹ | self-cleavage kobs at 2500 uM GlcN6P [5]: < 1e-05 s⁻¹

AUAAAAGCGCCAGAACUACAGAAAUGUACUUGACGAGGAGGUGGUUUAUCGAAUUUUCGGCGGACGCCUCCAAA [G29C A42U U65C]
self-cleavage kobs at 40 uM GlcN6P [1]: < 1e-05 s⁻¹ | self-cleavage kobs at 2500 uM GlcN6P [5]: < 1e-05 s⁻¹ | self-cleavage kobs at 10000 uM GlcN6P [2]: < 1e-05 s⁻¹

AUAAAAGCGCCAGAACUACAGAAAUAUAGUUGACGAGGUCGAGGUUUAUCGAAUUUUCGGCGGAUGCCUCCAAA [G26A A39U G40C]
self-cleavage kobs at 40 uM GlcN6P [1]: 5.34e-05 ± 1.4e-05 s⁻¹ | self-cleavage kobs at 640 uM GlcN6P [4]: 0.000262 ± 8.2e-05 s⁻¹ | self-cleavage kobs at 2500 uM GlcN6P [5]: 0.000935 ± 0.00028 s⁻¹

AUAAAAGCGCCAGAAUUACAGAAAUGUAGUUGACGAGGAGGAGGUUUAUCGAAUUUUCGGCGGAUGCCCCCAAA [C16U U69C]
self-cleavage kobs at 40 uM GlcN6P [1]: 0.000407 ± 8.8e-05 s⁻¹ | self-cleavage kobs at 160 uM GlcN6P [3]: 0.000359 ± 9e-05 s⁻¹ | self-cleavage kobs at 640 uM GlcN6P [4]: 0.000778 ± 0.00013 s⁻¹ | self-cleavage kobs at 2500 uM GlcN6P [5]: 0.000683 ± 0.00014 s⁻¹ | self-cleavage kobs at 10000 uM GlcN6P [2]: 0.0036 ± 0.00088 s⁻¹

AUAAAAGCGCCAGAACUACAGAAAUGUAAUUGACCAGGGGUACGUUUAUCGAAUUUUCGGCAGUUGCCUCCAAA [G29A G35C A39G G41U G43C G62A A64U]
self-cleavage kobs at 40 uM GlcN6P [1]: < 1e-05 s⁻¹ | self-cleavage kobs at 640 uM GlcN6P [4]: < 1e-05 s⁻¹ | self-cleavage kobs at 2500 uM GlcN6P [5]: < 1e-05 s⁻¹ | self-cleavage kobs at 10000 uM GlcN6P [2]: < 1e-05 s⁻¹

AUAAAAGCGCCAGAACUACAGAAAUGUAAUUGGGGAGGAGGAGGUUUAUCGAAUUUUCGGCGGAUGUCUCCAAA [G29A A33G C34G C67U]
self-cleavage kobs at 40 uM GlcN6P [1]: < 1e-05 s⁻¹

AUAAAAGCGCCAGAACUAAAGAAAUGUAGUUGACGAGGAGGAGGUUUAUCGAAUUGUCGGCGGAUGCUUCCAAA [C19A U56G C68U]
self-cleavage kobs at 40 uM GlcN6P [1]: 0.000112 ± 3.6e-05 s⁻¹ | self-cleavage kobs at 2500 uM GlcN6P [5]: 0.00041 ± 7.6e-05 s⁻¹ | self-cleavage kobs at 10000 uM GlcN6P [2]: 0.000435 ± 9.2e-05 s⁻¹

AUAAAAGCGCCAGAACUACAUAAAUGUAGUUGACGAGGAGGAGGUAUAUCGAAUUUUCGGCGGAUGCCUCCAAA [G21U U46A]
self-cleavage kobs at 40 uM GlcN6P [1]: 6.35e-05 ± 2.2e-05 s⁻¹ | self-cleavage kobs at 2500 uM GlcN6P [5]: 0.00271 ± 0.0012 s⁻¹ | self-cleavage kobs at 10000 uM GlcN6P [2]: 0.00269 ± 0.00086 s⁻¹

AUAAAAGCGCCAGAACUACAGAAAUGUAAUUGACGAGGAGGAGGUUUAUCGAACUUUCGGCGGAUGCCUCCAAA [G29A U54C]
self-cleavage kobs at 40 uM GlcN6P [1]: 0.000148 ± 3.6e-05 s⁻¹ | self-cleavage kobs at 160 uM GlcN6P [3]: 0.000257 ± 7e-05 s⁻¹ | self-cleavage kobs at 640 uM GlcN6P [4]: 0.000813 ± 0.00033 s⁻¹ | self-cleavage kobs at 2500 uM GlcN6P [5]: 0.00138 ± 0.00056 s⁻¹

AUAAAAGCGCCAGAACUACAGAAAUGUAAUUGACGAGGAGGAGGUUUAUCGAAUUUUCGGCGGAUACCUCCAAA [G29A G66A]
self-cleavage kobs at 40 uM GlcN6P [1]: 7.16e-05 ± 1.8e-05 s⁻¹ | self-cleavage kobs at 10000 uM GlcN6P [2]: 0.00305 ± 0.00076 s⁻¹

AUAAAAGCGCCAGAACUACAGAAAUGUAAUUGACGAGGAGGACGUUUAUCGAAUUUUCGGCGGAUGCCUCCAAA [G29A G43C]
self-cleavage kobs at 40 uM GlcN6P [1]: < 1e-05 s⁻¹ | self-cleavage kobs at 160 uM GlcN6P [3]: < 1e-05 s⁻¹ | self-cleavage kobs at 640 uM GlcN6P [4]: < 1e-05 s⁻¹ | self-cleavage kobs at 10000 uM GlcN6P [2]: < 1e-05 s⁻¹

AUAAAAGCGCCAGAACUAAAGAAAUGUAGUUGACGAGGAGGAGGUUUAUCAAAUUUUCGGCGGAUGCCUCCAAA [C19A G51A]
self-cleavage kobs at 40 uM GlcN6P [1]: < 1e-05 s⁻¹ | self-cleavage kobs at 10000 uM GlcN6P [2]: < 1e-05 s⁻¹

AUAAAAGCGCCAGAACUACAGAAAUUUAGUUGACGAGGAGGAGGUUUAUGGAAUUUUCGGCGGAUGCCUCCAAA [G26U C50G]
self-cleavage kobs at 40 uM GlcN6P [1]: 4.71e-05 ± 1.9e-05 s⁻¹ | self-cleavage kobs at 10000 uM GlcN6P [2]: 3.96e-05 ± 1.3e-05 s⁻¹

AUAAAAGCGCCAGAACUACAGAAAUGUAAUUGACGAGGAGGAGGUUUAUGGAUUUUUCGGCGGAUUCCUCCAAA [G29A C50G A53U G66U]
self-cleavage kobs at 40 uM GlcN6P [1]: 5.27e-05 ± 2.6e-05 s⁻¹

AUAAAAGCGCCAGAACUGCAGAAAUGUAGUUGACGAGGAGGAGGUUUAUCGAAUUUUCGGCGGAUGCCUACAAA [A18G C70A]
self-cleavage kobs at 40 uM GlcN6P [1]: 4.53e-05 ± 2.1e-05 s⁻¹ | self-cleavage kobs at 10000 uM GlcN6P [2]: 0.000432 ± 0.00014 s⁻¹

AUAAAAGCGCCAGAACUACAGAAAUGUACUUGACGAGGCGGAGGUUUCUCGAAUUUUCGACGGAUGCCUCCAAA [G29C A39C A48C G60A]
self-cleavage kobs at 40 uM GlcN6P [1]: < 1e-05 s⁻¹ | self-cleavage kobs at 10000 uM GlcN6P [2]: < 1e-05 s⁻¹

AUAAAAGCGCCAGAACUACAGAAAUGUACUUGACGAGGAGGAGGUUUAUCGAAUUUUGGGCGGAUGCCUCCAAA [G29C C58G]
self-cleavage kobs at 40 uM GlcN6P [1]: < 1e-05 s⁻¹ | self-cleavage kobs at 2500 uM GlcN6P [5]: 6.23e-05 ± 2.1e-05 s⁻¹ | self-cleavage kobs at 10000 uM GlcN6P [2]: 4.93e-05 ± 1.5e-05 s⁻¹

AUAAAAGCGCCAGAACUACAGAAAUGUAAUUGACGAGGAGGAGGUUUAUCGAAUUAUCGGCGCAUGCCUCCAAA [G29A U56A G63C]
self-cleavage kobs at 40 uM GlcN6P [1]: < 1e-05 s⁻¹
